In patent publication US20240059799A1 (Pfizer, published 2024):

T1: recombinant human TL1A (human, UniProt O95150 71-251)
T1 construct: The ELISA method says only 'recombinant TL1A' coated on plates; homotrimeric cytokine; also called TNFSF15; recombinant TL1A
T1 chain: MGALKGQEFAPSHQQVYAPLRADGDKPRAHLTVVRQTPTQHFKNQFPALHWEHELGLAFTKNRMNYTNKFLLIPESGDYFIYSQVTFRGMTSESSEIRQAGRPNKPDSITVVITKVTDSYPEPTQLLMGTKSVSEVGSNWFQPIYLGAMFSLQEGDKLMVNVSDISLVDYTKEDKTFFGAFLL


Molecular target: T1, recombinant human TL1A
Assay: competition ELISA on coated recombinant TL1A; competitor biotinylated TL1A-0002
Description: For this competition ELISA assay procedure, 96-well high binding plates (Corning, product number 3590) were coated with 1 μg/mL recombinant TL1A in 100 μL/well in Phospate Buffered Saline (PBS) overnight at 4° C. Plates were then blocked in PBS+0.02% casein solution and washed with PBS+0.05% Tween-20 following standard ELISA protocol. […] Plates were washed with PBS+0.05% Tween-20 following standard ELISA protocol, and Streptavidin-HRP (Southern Biotech, product number 7100-05) diluted to 1:10,000 in assay buffer was added to plates and incubated for 25-30 minutes at room temperature. Next, the plates were washed with PBS+0.05% Tween-20 following standard ELISA protocol, and then TMB substrate (BioFX Laboratories, catalog number TMBW-0100-01) was added to plates. Reactions were stopped after approximately 5 minutes by adding 0.18 M ortho-phosphoric acid to each well and absorbance was read at 450 nm.

Row | Bioactivity relative to TL1A-0002 [fold] | IC50 [nM] | Binder
1 | 2.3 | 11.5 | TL1A-0270 (antibody, human IgG1, kappa, V domains shown, human IgG1 effector-function-minimized / human kappa) VH: QVQLVQSGAEVKKPGASVKVSCKASGYDFSYYGISWVRQAPGQGLEWMGWISTYNDNTHYAPSLQGRVTMTTDTSTSTAYMELRSLRSDDTAVYYCARESYYGSGAFRGGMDVWGQGTTVTVSS VL: DIQMTQSPSSLSASVGDRVTITCRASQSVSSYLAWYQQKPGKAPKLLIYDASNRATGVPSRFSGSGSGTDFTLTISSLQPEDFATYYCQQRSNWPWTFGQGTKVEIKR
2 | 2 | 10.2 | TL1A-0277 (antibody, human IgG1, kappa, V domains shown, human IgG1 effector-function-minimized / human kappa) VH: QVQLVQSGAEVKKPGASVKVSCKASGYDFSYYGISWVRQAPGQGLEWMGWISTYNTGTHYAQKLQGRVTMTTDTSTSTAYMELRSLRSDDTAVYYCARESYYGSGAHRGGMDVWGQGTTVTVSS VL: DIQMTQSPSSLSASVGDRVTITCRASQSVSSYLAWYQQKPGKAPKLLIYDASNRATGVPSRFSGSGSGTDFTLTISSLQPEDFATYYCQQRSNWPWTFGQGTKVEIKR
3 | 48.9 | 246 | TL1A-0283 (antibody, V domains shown, IgG1 effector-minimized/kappa) VH: QVQLVQSGAEVKKPGASVKVSCKASGYDFSYYGISWVRQAPGQGLEWMGWISTYGGNTHYAPSLQGRVTMTTDTSTSTAYMELRSLRSDDTAVYYCARESYYGSGAHRGGMDVWGQGTTVTVSS VL: DIQMTQSPSSLSASVGDRVTITCRASQSVSSYLAWYQQKPGKAPKLLIYDASNRATGVPSRFSGSGSGTDFTLTISSLQPEDFATYYCQQRSNWPWTFGQGTKVEIKR
4 | 2.1 | 10.5 | TL1A-0279 (antibody, human IgG1, kappa, V domains shown, human IgG1 effector-function-minimized / human kappa) VH: QVQLVQSGAEVKKPGASVKVSCKASGYDFSYYGISWVRQAPGQGLEWMGWISTYNTVTHYAPSLQGRVTMTTDTSTSTAYMELRSLRSDDTAVYYCARESYYGSGAHRGGMDVWGQGTTVTVSS VL: DIQMTQSPSSLSASVGDRVTITCRASQSVSSYLAWYQQKPGKAPKLLIYDASNRATGVPSRFSGSGSGTDFTLTISSLQPEDFATYYCQQRSNWPWTFGQGTKVEIKR
5 | 2.3 | 11.6 | TL1A-0272 (antibody, human IgG1, kappa, V domains shown, human IgG1 effector-function-minimized / human kappa) VH: QVQLVQSGAEVKKPGASVKVSCKASGYDFSYYGISWVRQAPGQGLEWMGWISTYNDNTHYAQKLQGRVTMTTDTSTSTAYMELRSLRSDDTAVYYCARESYYGSGAFRGGMDVWGQGTTVTVSS VL: DIQMTQSPSSLSASVGDRVTITCRASQSVSSYLAWYQQKPGKAPKLLIYDASNRATGVPSRFSGSGSGTDFTLTISSLQPEDFATYYCQQRSNWPWTFGQGTKVEIKR
6 | 1.8 | 9.1 | TL1A-0278 (antibody, human IgG1, kappa, V domains shown, human IgG1 effector-function-minimized / human kappa) VH: QVQLVQSGAEVKKPGASVKVSCKASGYDFSYYGISWVRQAPGQGLEWMGWISTYNTVTHYAPSLQGRVTMTTDTSTSTAYMELRSLRSDDTAVYYCARESYYGSGAFRGGMDVWGQGTTVTVSS VL: DIQMTQSPSSLSASVGDRVTITCRASQSVSSYLAWYQQKPGKAPKLLIYDASNRATGVPSRFSGSGSGTDFTLTISSLQPEDFATYYCQQRSNWPWTFGQGTKVEIKR
7 | 2.2 | 10.9 | TL1A-0273 (antibody, human IgG1, kappa, V domains shown, human IgG1 effector-function-minimized / human kappa) VH: QVQLVQSGAEVKKPGASVKVSCKASGYDFSYYGISWVRQAPGQGLEWMGWISTYNDNTHYAQKLQGRVTMTTDTSTSTAYMELRSLRSDDTAVYYCARESYYGSGAHRGGMDVWGQGTTVTVSS VL: DIQMTQSPSSLSASVGDRVTITCRASQSVSSYLAWYQQKPGKAPKLLIYDASNRATGVPSRFSGSGSGTDFTLTISSLQPEDFATYYCQQRSNWPWTFGQGTKVEIKR
8 | 2.6 | 13.1 | TL1A-0281 (antibody, human IgG1, kappa, V domains shown, human IgG1 effector-function-minimized / human kappa) VH: QVQLVQSGAEVKKPGASVKVSCKASGYDFSYYGISWVRQAPGQGLEWMGWISTYNTNTHYAPSLQGRVTMTTDTSTSTAYMELRSLRSDDTAVYYCARESYYGSGAHRGGMDVWGQGTTVTVSS VL: DIQMTQSPSSLSASVGDRVTITCRASQSVSSYLAWYQQKPGKAPKLLIYDASNRATGVPSRFSGSGSGTDFTLTISSLQPEDFATYYCQQRSNWPWTFGQGTKVEIKR
9 | 2 | 10.1 | TL1A-0274 (antibody, human IgG1, kappa, V domains shown, human IgG1 effector-function-minimized / human kappa) VH: QVQLVQSGAEVKKPGASVKVSCKASGYDFSYYGISWVRQAPGQGLEWMGWISTYNTGTHYAPSLQGRVTMTTDTSTSTAYMELRSLRSDDTAVYYCARESYYGSGAFRGGMDVWGQGTTVTVSS VL: DIQMTQSPSSLSASVGDRVTITCRASQSVSSYLAWYQQKPGKAPKLLIYDASNRATGVPSRFSGSGSGTDFTLTISSLQPEDFATYYCQQRSNWPWTFGQGTKVEIKR
10 | 1.6 | 8.2 | TL1A-0280 (antibody, human IgG1, kappa, V domains shown, human IgG1 effector-function-minimized / human kappa) VH: QVQLVQSGAEVKKPGASVKVSCKASGYDFSYYGISWVRQAPGQGLEWMGWISTYNTNTHYAPSLQGRVTMTTDTSTSTAYMELRSLRSDDTAVYYCARESYYGSGAFRGGMDVWGQGTTVTVSS VL: DIQMTQSPSSLSASVGDRVTITCRASQSVSSYLAWYQQKPGKAPKLLIYDASNRATGVPSRFSGSGSGTDFTLTISSLQPEDFATYYCQQRSNWPWTFGQGTKVEIKR
11 | 2.1 | 10.6 | TL1A-0271 (antibody, human IgG1, kappa, V domains shown, human IgG1 effector-function-minimized / human kappa) VH: QVQLVQSGAEVKKPGASVKVSCKASGYDFSYYGISWVRQAPGQGLEWMGWISTYNDNTHYAPSLQGRVTMTTDTSTSTAYMELRSLRSDDTAVYYCARESYYGSGAHRGGMDVWGQGTTVTVSS VL: DIQMTQSPSSLSASVGDRVTITCRASQSVSSYLAWYQQKPGKAPKLLIYDASNRATGVPSRFSGSGSGTDFTLTISSLQPEDFATYYCQQRSNWPWTFGQGTKVEIKR
12 | 1.8 | 9 | TL1A-0275 (antibody, human IgG1, kappa, V domains shown, human IgG1 effector-function-minimized / human kappa) VH: QVQLVQSGAEVKKPGASVKVSCKASGYDFSYYGISWVRQAPGQGLEWMGWISTYNTGTHYAPSLQGRVTMTTDTSTSTAYMELRSLRSDDTAVYYCARESYYGSGAHRGGMDVWGQGTTVTVSS VL: DIQMTQSPSSLSASVGDRVTITCRASQSVSSYLAWYQQKPGKAPKLLIYDASNRATGVPSRFSGSGSGTDFTLTISSLQPEDFATYYCQQRSNWPWTFGQGTKVEIKR
13 | 2.1 | 10.6 | TL1A-0276 (antibody, human IgG1, kappa, V domains shown, human IgG1 effector-function-minimized / human kappa) VH: QVQLVQSGAEVKKPGASVKVSCKASGYDFSYYGISWVRQAPGQGLEWMGWISTYNTGTHYAQKLQGRVTMTTDTSTSTAYMELRSLRSDDTAVYYCARESYYGSGAFRGGMDVWGQGTTVTVSS VL: DIQMTQSPSSLSASVGDRVTITCRASQSVSSYLAWYQQKPGKAPKLLIYDASNRATGVPSRFSGSGSGTDFTLTISSLQPEDFATYYCQQRSNWPWTFGQGTKVEIKR
14 | 10.3 | 52.1 | TL1A-0282 (antibody, V domains shown, IgG1 effector-minimized/kappa) VH: QVQLVQSGAEVKKPGASVKVSCKASGYDFSYYGISWVRQAPGQGLEWMGWISTYGGNTHYAPSLQGRVTMTTDTSTSTAYMELRSLRSDDTAVYYCARESYYGSGAFRGGMDVWGQGTTVTVSS VL: DIQMTQSPSSLSASVGDRVTITCRASQSVSSYLAWYQQKPGKAPKLLIYDASNRATGVPSRFSGSGSGTDFTLTISSLQPEDFATYYCQQRSNWPWTFGQGTKVEIKR
